From IntAct's records for PubMed 21840486

B1: Protein PML (Homo sapiens), P29590-1 (parent)
chain: MEPAPARSPRPQQDPARPQEPTMPPPETPSEGRQPSPSPSPTERAPASEEEFQFLRCQQCQAEAKCPKLLPCLHTLCSGCLEASGMQCPICQAPWPLGADTPALDNVFFESLQRRLSVYRQIVDAQAVCTRCKESADFWCFECEQLLCAKCFEAHQWFLKHEARPLAELRNQSVREFLDGTRKTNNIFCSNPNHRTPTLTSIYCRGCSKPLCCSCALLDSSHSELKCDISAEIQQRQEELDAMTQALQEQDSAFGAVHAQMHAAVGQLGRARAETEELIRERVRQVVAHVRAQERELLEAVDARYQRDYEEMASRLGRLDAVLQRIRTGSALVQRMKCYASDQEVLDMHGFLRQALCRLRQEEPQSLQAAVRTDGFDEFKVRLQDLSSCITQGKDAAVSKKASPEAASTPRDPIDVDLPEEAERVKAQVQALGLAEAQPMAVVQSVPGAHPVPVYAFSIKGPSYGEDVSNTTTAQKRKCSQTQCPRKVIKMESEEGKEARLARSSPEQPRPSTSKAVSPPHLDGPPSPRSPVIGSEVFLPNSNHVASGAGEAEERVVVISSSEDSDAENSSSRELDDSSSESSDLQLEGPSTLRVLDENLADPQAEDRPLVFFDLKIDNETQKISQLAAVNRESKFRVVIQPEAFFSIYSKAVSLEVGLQHFLSFLSSMRRPILACYKLWGPGLPNFFRALEDINRLWEFQEAISGFLAALPLIRERVPGASSFKLKNLAQTYLARNMSERSAMAAVLAMRDLCRLLEVSPGPQLAQHVYPFSSLQCFASLQPLVQAAVLPRAEARLLALHNVSFMELLSAHRRDRQGGLKKYSRYLSLQTTTLPPAQPAFNLQALGTYFEGLLEGPALARAEGVSTPLAGRGLAERASQQS
partner: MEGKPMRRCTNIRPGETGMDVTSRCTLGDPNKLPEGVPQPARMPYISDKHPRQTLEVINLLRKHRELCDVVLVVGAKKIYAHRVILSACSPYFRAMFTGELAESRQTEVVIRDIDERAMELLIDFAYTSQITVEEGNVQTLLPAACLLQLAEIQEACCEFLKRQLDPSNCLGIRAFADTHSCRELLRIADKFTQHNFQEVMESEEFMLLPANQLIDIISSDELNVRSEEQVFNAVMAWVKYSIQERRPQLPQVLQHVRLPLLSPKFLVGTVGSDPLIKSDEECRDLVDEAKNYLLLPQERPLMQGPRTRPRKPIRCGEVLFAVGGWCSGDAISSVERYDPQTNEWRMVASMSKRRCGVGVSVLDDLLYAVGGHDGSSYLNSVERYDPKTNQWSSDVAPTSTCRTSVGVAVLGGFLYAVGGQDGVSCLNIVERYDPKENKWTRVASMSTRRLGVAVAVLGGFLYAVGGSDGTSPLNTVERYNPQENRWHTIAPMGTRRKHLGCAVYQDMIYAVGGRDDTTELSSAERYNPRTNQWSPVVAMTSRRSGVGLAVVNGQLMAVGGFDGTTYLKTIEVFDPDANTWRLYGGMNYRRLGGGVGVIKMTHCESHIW

Variants of: B1
Details: with klh20_human KLHL20, Q9Y2M5

Row | Variant | effect of a mutation on the interaction
1 | S518A | disrupting interaction

Variants of: B1
Details: with klh20_human KLHL20, Q9Y2M5
Remark: another data set of the same source

Row | Variant | effect of a mutation on the interaction
2 | S518A | disrupting interaction
